Positions count from the first letter of the chain named.
B1: anti-CLDN-5 ECR mAb clone 2B12 (antibody, V domains shown)
VH: QVQLQQSGAELARPGASVKLSCKASGYTFTRFGMSWVKQRTGQGLEWIGEIYPGSGDTYYSENFKGKATLTADKSSGTAYMELRSLTSEDSAVYFCARWGIYYGNPYAMDYWGQGTSVTVSS
VL: DIVMTQAAPSVPVTPGESVSISCRSSKSLLHSNGNTYLYWFLQRPGQSPQLLIYRMSNLASGVPDRFSGSGSGTAFTLRISRVEAEDVGVYYCLQHLEYPFTFGSGTKLEIK
notes: source: hybridoma from an Antigen2-immunized BXSB mouse; ascitic fluid, purified (Protein G Sepharose); also reconstituted as recombinant antibody
B2: anti-CLDN-5 ECR mAb clone 1B3 (antibody, V domains shown)
VH: QIQLVQSGPELKKPGETVKISCKASGYSFTAHGMSWVKQAPGKGLKWMGWINTYSGVPAYADDFKGRFAFSLETSPSTAFLQINNLKNEDTATYFCTRSHYDRKFGYWGQGTLVTVSA
VL: QAVVTQESALTTSPGETVTLTCRSSTGAVTTSNYANWVQEKPDHLFTGLIGDTNNRAPGVPARFSGSLIGDKAALTITGAQTGDEAIYFCALWYSNLWVFGGGTKLTVR
notes: source: hybridoma from an Antigen1-immunized BXSB mouse; ascitic fluid, purified (Protein G Sepharose); also reconstituted as recombinant antibody
B3: anti-CLDN-5 ECR mAb clone 1D1 (antibody, V domains shown)
VH: QVQLQQPGAEHVKPGASVKLSCKASGYTFTTYWIHWVKQRPGRGLEWIGRIAPNSGGTKYNENFKSKATLTVDRPSTTAYMQLSGLTSEDSAVYYCARWDFTFGTNLDYWGQGTTLTVSS
VL: DIVMTQSQKFMSTSVGDRVSITCKASQNVRTAVAWYQQKPGQSPKALIFLASNRHTGVPDRFTGSGSGTDFTLTITNVQSEDLADYFCLQHWTYPYTFGGGTKLEIK
notes: as for B1
B4: anti-CLDN-5 ECR mAb clone 2B1 (antibody, V domains shown)
VH: B3 VH with H11L, Y32F, N54Y, K59T, N63K, S84I, G85S, F103Y, T105S
VL: B3 VL with T22P, F49Y, T76S, Q90G, T93D
notes: as for B1

These binders were tested against T1, human claudin-5 expressed in HT-1080 cells (Homo sapiens (Human)., UniProt O00501) (assay: flow cytometry on cells; HT-1080/hCLDN-5 cells with purified mAb at 0.0024–40 µg/mL; mean fluorescence intensity fitted to Y = Bmax • X/(Kd + X); apparent dissociation constant; three independent experiments). Details: one partner purified.
T1 construct: claudin-5, human; In the western blot the same protein stood denatured in the cell lysate; The TEER assays used MDCKII cells expressing human CLDN-5; also called human CLDN-5; hCLDN-5; source: HT-1080 cells, stably expressing; on cells and in lysate
T1 sequence (O00501 whole entry): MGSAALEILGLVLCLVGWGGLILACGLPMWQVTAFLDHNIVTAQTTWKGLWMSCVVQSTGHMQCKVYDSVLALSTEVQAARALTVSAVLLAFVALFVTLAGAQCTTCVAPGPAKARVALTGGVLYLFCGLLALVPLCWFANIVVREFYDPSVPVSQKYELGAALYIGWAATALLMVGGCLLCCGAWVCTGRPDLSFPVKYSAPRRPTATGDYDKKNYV

| Kd [nM] | Binder |
| --- | --- |
| 7.37 | B1 |

The binders below were run against T1, human claudin-5 expressed in HT-1080 … (assay: flow cytometry on cells; HT-1080 cells stably expressing CLDNs or CLDN-5 mutants, detached with 0.05% trypsin/0.02% EDTA; 5 µg/mL mAb; fluorescence-conjugated goat anti-mouse IgG). Details: one partner purified.

| binding result | Binder |
| --- | --- |
| binds | B2 |
| binds | B3 |
| binds | B4 |

Each binder was assayed against T2, human claudin-7 expressed in HT-1080 cells (Homo sapiens (Human)., UniProt O95471) in the same assay as above. Details: one partner purified.
T2 construct: claudin-7, human; also called human CLDN-7; source: HT-1080 cells, stably expressing
T2 sequence (O95471 whole entry): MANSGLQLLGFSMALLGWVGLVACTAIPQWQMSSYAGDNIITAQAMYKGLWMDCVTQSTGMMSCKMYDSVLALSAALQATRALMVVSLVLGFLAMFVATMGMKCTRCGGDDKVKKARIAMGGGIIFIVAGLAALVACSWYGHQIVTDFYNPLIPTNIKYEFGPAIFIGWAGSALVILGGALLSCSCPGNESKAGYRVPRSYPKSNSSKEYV

| binding result | Binder |
| --- | --- |
| no binding (tested: 5 µg/mL) | B2 |
| no binding (tested: 5 µg/mL) | B3 |
| no binding (tested: 5 µg/mL) | B4 |
| no binding (tested: 5 µg/mL) | B1 |

Each binder was assayed against T3, mouse claudin-5 expressed in HT-1080 cells (Mus musculus (Mouse)., UniProt O54942) in the same assay as above. Details: one partner purified.
T3 construct: claudin-5, mouse; The TEER assays used MDCKII cells expressing mouse CLDN-5; also called mouse CLDN-5; mCLDN-5; source: HT-1080 cells, stably expressing
T3 sequence (O54942 whole entry): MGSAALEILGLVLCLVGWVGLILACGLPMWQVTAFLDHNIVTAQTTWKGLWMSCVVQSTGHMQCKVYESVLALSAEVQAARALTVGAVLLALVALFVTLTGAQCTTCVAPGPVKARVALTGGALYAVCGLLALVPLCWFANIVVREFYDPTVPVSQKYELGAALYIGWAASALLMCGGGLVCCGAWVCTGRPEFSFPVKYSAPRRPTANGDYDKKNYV

| binding result | Binder |
| --- | --- |
| no binding (tested: 5 µg/mL) | B2 |
| no binding (tested: 5 µg/mL) | B3 |
| no binding (tested: 5 µg/mL) | B4 |
| no binding (tested: 5 µg/mL) | B1 |

The binders below were run against T4, human claudin-3 expressed in HT-1080 cells (Homo sapiens (Human)., UniProt O15551) in the same assay as above. Details: one partner purified.
T4 construct: claudin-3, human; also called human CLDN-3; source: HT-1080 cells, stably expressing
T4 sequence (O15551 whole entry): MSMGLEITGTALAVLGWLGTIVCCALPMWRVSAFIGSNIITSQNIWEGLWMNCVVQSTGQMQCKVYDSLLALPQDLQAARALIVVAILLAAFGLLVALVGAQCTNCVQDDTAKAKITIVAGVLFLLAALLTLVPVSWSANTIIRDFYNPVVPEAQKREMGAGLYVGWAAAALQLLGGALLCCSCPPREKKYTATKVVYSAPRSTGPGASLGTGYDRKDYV

| binding result | Binder |
| --- | --- |
| no binding (tested: 5 µg/mL) | B2 |
| no binding (tested: 5 µg/mL) | B3 |
| no binding (tested: 5 µg/mL) | B4 |
| no binding (tested: 5 µg/mL) | B1 |

These binders were tested against T5, human claudin-6 expressed in HT-1080 cells (Homo sapiens (Human)., UniProt P56747) in the same assay as above. Details: one partner purified.
T5 construct: claudin-6, human; also called human CLDN-6; source: HT-1080 cells, stably expressing
T5 sequence (P56747 whole entry): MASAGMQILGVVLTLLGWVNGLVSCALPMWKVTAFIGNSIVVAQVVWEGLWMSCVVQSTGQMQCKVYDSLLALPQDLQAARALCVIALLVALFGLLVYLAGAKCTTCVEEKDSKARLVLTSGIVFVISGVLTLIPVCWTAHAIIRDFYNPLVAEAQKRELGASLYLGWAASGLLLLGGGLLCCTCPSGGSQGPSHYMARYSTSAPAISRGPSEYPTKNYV

| binding result | Binder |
| --- | --- |
| no binding (tested: 5 µg/mL) | B2 |
| no binding (tested: 5 µg/mL) | B3 |
| no binding (tested: 5 µg/mL) | B4 |
| no binding (tested: 5 µg/mL) | B1 |

What follows are binders tested against T6, human claudin-2 expressed in HT-1080 cells (Homo sapiens (Human)., UniProt P57739) in the same assay as above. Details: one partner purified.
T6 construct: claudin-2, human; also called human CLDN-2; source: HT-1080 cells, stably expressing
T6 sequence (P57739 whole entry): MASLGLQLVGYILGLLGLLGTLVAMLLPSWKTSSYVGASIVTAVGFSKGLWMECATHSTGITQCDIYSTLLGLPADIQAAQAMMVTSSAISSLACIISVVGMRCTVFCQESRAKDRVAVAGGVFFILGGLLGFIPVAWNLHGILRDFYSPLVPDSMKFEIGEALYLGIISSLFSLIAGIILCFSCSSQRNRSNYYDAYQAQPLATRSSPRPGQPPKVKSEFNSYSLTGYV

| binding result | Binder |
| --- | --- |
| no binding (tested: 5 µg/mL) | B2 |
| no binding (tested: 5 µg/mL) | B3 |
| no binding (tested: 5 µg/mL) | B4 |
| no binding (tested: 5 µg/mL) | B1 |

Each binder was assayed against T7, human claudin-4 expressed in HT-1080 cells (Homo sapiens (Human)., UniProt O14493) in the same assay as above. Details: one partner purified.
T7 construct: claudin-4, human; also called human CLDN-4; source: HT-1080 cells, stably expressing

| binding result | Binder |
| --- | --- |
| no binding (tested: 5 µg/mL) | B2 |
| no binding (tested: 5 µg/mL) | B3 |
| no binding (tested: 5 µg/mL) | B4 |
| no binding (tested: 5 µg/mL) | B1 |

The binders below were run against T8, human claudin-1 expressed in HT-1080 cells (Homo sapiens (Human)., UniProt O95832) in the same assay as above. Details: one partner purified.
T8 construct: claudin-1, human; also called human CLDN-1; source: HT-1080 cells, stably expressing
T8 sequence (O95832 whole entry): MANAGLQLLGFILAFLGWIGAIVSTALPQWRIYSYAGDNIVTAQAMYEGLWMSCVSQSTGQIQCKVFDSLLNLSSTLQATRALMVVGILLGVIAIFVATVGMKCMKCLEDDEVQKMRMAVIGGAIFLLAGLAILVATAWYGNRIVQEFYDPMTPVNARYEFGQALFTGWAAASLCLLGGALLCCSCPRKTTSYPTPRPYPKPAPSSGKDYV

| binding result | Binder |
| --- | --- |
| no binding (tested: 5 µg/mL) | B2 |
| no binding (tested: 5 µg/mL) | B3 |
| no binding (tested: 5 µg/mL) | B4 |
| no binding (tested: 5 µg/mL) | B1 |

The binders below were run against T9, AGIA-tagged human CLDN-5, cell-free synthesized proteoliposome (Homo sapiens, UniProt O00501) (assay: ELISA; cell-free synthesized AGIA-tagged CLDN proteoliposomes immobilised on a microtiter plate overnight at 4 °C; mAb 10 µg/mL in 5% skimmed milk/T-TBS, 1 h at room temperature; HRP anti-mouse IgG + IgM). Details: both partners purified.
T9 construct: claudin-5, human; codon-converted synthetic gene; The vector pEU-E01-AGIA-GW puts a start codon and the AGIA tag at the 5′-end of the cassette, though the label reads hCLDN-5-AGIA; also called hCLDN-5-AGIA; cell-free synthesized CLDN-5; source: wheat cell-free synthesis on liposomes, proteoliposomes collected by centrifugation; not shown: AGIA, N-terminal, kept
T9 sequence (O00501 whole entry): as the sequence (O00501 whole entry) above

| binding result | Binder |
| --- | --- |
| binds | B2 |
| binds | B3 |
| binds | B4 |

From paper PMC5976803, “Engineered membrane protein antigens successfully induce antibodies against extracellular regions of claudin-5” (Scientific Reports, 2018)
